This assay concerns the target dnjc3_mouse Dnajc3 (UniProt Q91YW3).

Sequence of dnjc3_mouse Dnajc3 (Q91YW3 whole entry): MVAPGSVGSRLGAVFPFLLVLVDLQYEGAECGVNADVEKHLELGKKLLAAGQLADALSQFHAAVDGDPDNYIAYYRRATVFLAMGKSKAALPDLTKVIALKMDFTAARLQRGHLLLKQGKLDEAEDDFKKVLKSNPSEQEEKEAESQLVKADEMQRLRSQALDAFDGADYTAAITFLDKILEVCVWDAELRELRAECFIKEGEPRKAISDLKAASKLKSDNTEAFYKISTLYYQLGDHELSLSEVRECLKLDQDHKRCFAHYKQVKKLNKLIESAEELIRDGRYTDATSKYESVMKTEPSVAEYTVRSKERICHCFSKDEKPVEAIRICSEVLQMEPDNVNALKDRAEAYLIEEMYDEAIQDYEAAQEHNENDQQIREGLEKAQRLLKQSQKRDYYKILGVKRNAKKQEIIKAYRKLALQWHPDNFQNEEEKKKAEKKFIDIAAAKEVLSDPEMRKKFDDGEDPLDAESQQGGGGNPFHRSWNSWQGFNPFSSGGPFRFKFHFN

On to “Endoplasmic reticulum chaperone BiP (Homo sapiens), P11021 E201G”, for which the “effect of a mutation on the interaction” value was “disrupting interaction”.

The record behind these values is IntAct's records for PubMed 18923430.
